For this assay, the target named is V158 high affinity variant of CD16a (FcγRIIIa) (UniProt P08637). In words: HTRF competition with IgG-d2 on HEK293 cells expressing terbium-labelled FcγRIIIa V158.

This is an account of results in patent US20160024176A1.

Consider human IgG1 monoclonal antibody, for which the EC50 was determined as 220 nM.
